{"source": "the RNAGym collection of RNA variant scans (doi:10.7554/elife.80360)", "parents": {"B1": {"name": "Hairpin Ribozyme (parent)", "chain": "GUCCUCUUUCACGUGCGCGUGAAAGAGAGAAGUGAACCAGAGAAACACACGUUGUGGUAUAUUACCUGGUA"}}, "data": [{"variants_of": "B1", "assay": "self-cleavage, relative activity (ratio to wild type); higher = more cleavage; co-transcriptional", "values": [{"variant": "C16U G42C", "self-cleavage": 0.346}, {"variant": "C16U G42U", "self-cleavage": 0.34}, {"variant": "C16U G54C", "self-cleavage": 0.411}, {"variant": "C16U G54U", "self-cleavage": 0.82}, {"variant": "C16U G56C", "self-cleavage": 0.127}, {"variant": "C16U G56U", "self-cleavage": 0.189}, {"variant": "C16U G57U", "self-cleavage": 0.266}, {"variant": "C16U G68C", "self-cleavage": 0.22}, {"variant": "C16U G68U", "self-cleavage": 0.329}, {"variant": "C16U G69A", "self-cleavage": 0.301}, {"variant": "C16U G69U", "self-cleavage": 0.267}, {"variant": "C16U U20A", "self-cleavage": 0.817}, {"variant": "C16U U20C", "self-cleavage": 0.86}, {"variant": "C16U U33G", "self-cleavage": 0.148}, {"variant": "C16U U53A", "self-cleavage": 1.23}, {"variant": "C16U U53C", "self-cleavage": 0.564}, {"variant": "C16U U53G", "self-cleavage": 1.05}, {"variant": "C16U U55C", "self-cleavage": 0.251}, {"variant": "C16U U58G", "self-cleavage": 0.765}, {"variant": "C16U U60G", "self-cleavage": 0.634}, {"variant": "C16U U63A", "self-cleavage": 0.253}, {"variant": "C16U U63G", "self-cleavage": 0.195}, {"variant": "G17A A23G", "self-cleavage": 0.824}, {"variant": "G17A A24G", "self-cleavage": 0.824}, {"variant": "G17A A26C", "self-cleavage": 0.75}, {"variant": "G17A A26G", "self-cleavage": 1.01}, {"variant": "G17A A28C", "self-cleavage": 0.74}, {"variant": "G17A A28U", "self-cleavage": 0.808}, {"variant": "G17A A31C", "self-cleavage": 0.144}, {"variant": "G17A A36C", "self-cleavage": 0.607}, {"variant": "G17A A36G", "self-cleavage": 1.17}, {"variant": "G17A A36U", "self-cleavage": 0.544}, {"variant": "G17A A39G", "self-cleavage": 0.319}, {"variant": "G17A A41G", "self-cleavage": 0.833}, {"variant": "G17A A43U", "self-cleavage": 0.105}, {"variant": "G17A A44U", "self-cleavage": 0.183}, {"variant": "G17A A45G", "self-cleavage": 0.15}, {"variant": "G17A A45U", "self-cleavage": 0.13}, {"variant": "G17A A47C", "self-cleavage": 0.319}, {"variant": "G17A A47U", "self-cleavage": 0.132}, {"variant": "G17A A49C", "self-cleavage": 0.243}, {"variant": "G17A A49G", "self-cleavage": 0.62}, {"variant": "G17A A59G", "self-cleavage": 0.205}, {"variant": "G17A A61C", "self-cleavage": 0.199}, {"variant": "G17A A61U", "self-cleavage": 0.208}, {"variant": "G17A A64G", "self-cleavage": 0.615}, {"variant": "G17A A64U", "self-cleavage": 0.151}, {"variant": "G17A A71G", "self-cleavage": 1.04}, {"variant": "G17A A71U", "self-cleavage": 0.868}, {"variant": "G17A C18G", "self-cleavage": 1.15}, {"variant": "G17A C37A", "self-cleavage": 0.251}, {"variant": "G17A C38A", "self-cleavage": 0.169}, {"variant": "G17A C38U", "self-cleavage": 0.512}, {"variant": "G17A C46G", "self-cleavage": 0.211}, {"variant": "G17A C46U", "self-cleavage": 0.143}, {"variant": "G17A C50U", "self-cleavage": 0.373}, {"variant": "G17A C65A", "self-cleavage": 0.86}, {"variant": "G17A C65U", "self-cleavage": 0.31}, {"variant": "G17A C66A", "self-cleavage": 0.26}, {"variant": "G17A C66U", "self-cleavage": 0.554}, {"variant": "G17A G19A", "self-cleavage": 0.962}, {"variant": "G17A G19C", "self-cleavage": 0.969}, {"variant": "G17A G21A", "self-cleavage": 0.792}, {"variant": "G17A G25A", "self-cleavage": 0.587}, {"variant": "G17A G25C", "self-cleavage": 0.552}, {"variant": "G17A G27A", "self-cleavage": 0.547}, {"variant": "G17A G27U", "self-cleavage": 0.324}, {"variant": "G17A G29C", "self-cleavage": 0.169}, {"variant": "G17A G34A", "self-cleavage": 1.26}, {"variant": "G17A G34C", "self-cleavage": 1.3}, {"variant": "G17A G34U", "self-cleavage": 0.967}, {"variant": "G17A G40U", "self-cleavage": 0.203}, {"variant": "G17A G42A", "self-cleavage": 0.222}, {"variant": "G17A G42U", "self-cleavage": 0.273}, {"variant": "G17A G51A", "self-cleavage": 1.06}, {"variant": "G17A G68A", "self-cleavage": 0.301}, {"variant": "G17A G68C", "self-cleavage": 0.232}, {"variant": "G17A G69C", "self-cleavage": 0.249}, {"variant": "G17A U52C", "self-cleavage": 1.11}, {"variant": "G17A U52G", "self-cleavage": 0.982}, {"variant": "G17A U53A", "self-cleavage": 1.36}, {"variant": "G17A U53C", "self-cleavage": 1.01}, {"variant": "G17A U53G", "self-cleavage": 0.932}, {"variant": "G17A U55G", "self-cleavage": 0.161}, {"variant": "G17A U58A", "self-cleavage": 0.709}, {"variant": "G17A U60G", "self-cleavage": 0.581}, {"variant": "G17A U63A", "self-cleavage": 0.19}, {"variant": "G17A U67A", "self-cleavage": 0.255}, {"variant": "G17A U67G", "self-cleavage": 0.243}, {"variant": "G17A U70A", "self-cleavage": 0.897}, {"variant": "G17A U70C", "self-cleavage": 0.937}, {"variant": "G17C A22G", "self-cleavage": 0.552}, {"variant": "G17C A23G", "self-cleavage": 0.458}, {"variant": "G17C A24G", "self-cleavage": 0.88}, {"variant": "G17C A24U", "self-cleavage": 0.73}, {"variant": "G17C A31G", "self-cleavage": 0.425}, {"variant": "G17C A35U", "self-cleavage": 0.44}, {"variant": "G17C A39C", "self-cleavage": 0.528}, {"variant": "G17C A39U", "self-cleavage": 0.35}, {"variant": "G17C A41C", "self-cleavage": 0.983}, {"variant": "G17C A43U", "self-cleavage": 0.0572}, {"variant": "G17C A45G", "self-cleavage": 0.112}, {"variant": "G17C A49U", "self-cleavage": 0.263}, {"variant": "G17C A61C", "self-cleavage": 0.078}, {"variant": "G17C A61G", "self-cleavage": 0.225}, {"variant": "G17C A64G", "self-cleavage": 0.592}, {"variant": "G17C A64U", "self-cleavage": 0.176}, {"variant": "G17C C37A", "self-cleavage": 0.287}, {"variant": "G17C C38A", "self-cleavage": 0.199}, {"variant": "G17C C46A", "self-cleavage": 0.113}, {"variant": "G17C C46G", "self-cleavage": 0.074}, {"variant": "G17C C48U", "self-cleavage": 0.148}, {"variant": "G17C C50G", "self-cleavage": 0.132}, {"variant": "G17C G19A", "self-cleavage": 0.836}, {"variant": "G17C G19C", "self-cleavage": 0.68}, {"variant": "G17C G25C", "self-cleavage": 0.3}, {"variant": "G17C G29A", "self-cleavage": 0.12}, {"variant": "G17C G32C", "self-cleavage": 0.183}, {"variant": "G17C G40U", "self-cleavage": 0.144}, {"variant": "G17C G42A", "self-cleavage": 0.176}, {"variant": "G17C G51U", "self-cleavage": 0.679}, {"variant": "G17C G56A", "self-cleavage": 0.0625}, {"variant": "G17C G57A", "self-cleavage": 0.148}, {"variant": "G17C G57U", "self-cleavage": 0.222}, {"variant": "G17C G68A", "self-cleavage": 0.196}, {"variant": "G17C G69U", "self-cleavage": 0.196}, {"variant": "G17C U20A", "self-cleavage": 0.736}, {"variant": "G17C U20G", "self-cleavage": 0.904}, {"variant": "G17C U52C", "self-cleavage": 0.778}, {"variant": "G17C U53G", "self-cleavage": 0.41}, {"variant": "G17C U55G", "self-cleavage": 0.196}, {"variant": "G17C U58A", "self-cleavage": 0.453}, {"variant": "G17C U60C", "self-cleavage": 1.08}, {"variant": "G17C U62G", "self-cleavage": 0.216}, {"variant": "G17C U63G", "self-cleavage": 0.125}, {"variant": "G17C U67C", "self-cleavage": 0.197}, {"variant": "G17U A22C", "self-cleavage": 0.703}, {"variant": "G17U A22G", "self-cleavage": 0.831}, {"variant": "G17U A24C", "self-cleavage": 0.848}, {"variant": "G17U A26C", "self-cleavage": 0.682}, {"variant": "G17U A28C", "self-cleavage": 0.383}, {"variant": "G17U A28U", "self-cleavage": 0.51}, {"variant": "G17U A31C", "self-cleavage": 0.224}, {"variant": "G17U A31U", "self-cleavage": 0.104}, {"variant": "G17U A35C", "self-cleavage": 1.03}, {"variant": "G17U A35G", "self-cleavage": 1.02}, {"variant": "G17U A36C", "self-cleavage": 0.587}, {"variant": "G17U A36G", "self-cleavage": 1.06}, {"variant": "G17U A41C", "self-cleavage": 0.997}, {"variant": "G17U A41G", "self-cleavage": 1.08}, {"variant": "G17U A43G", "self-cleavage": 0.0761}, {"variant": "G17U A44C", "self-cleavage": 0.152}, {"variant": "G17U A44U", "self-cleavage": 0.0838}, {"variant": "G17U A45G", "self-cleavage": 0.0728}, {"variant": "G17U A45U", "self-cleavage": 0.176}, {"variant": "G17U A47U", "self-cleavage": 0.101}, {"variant": "G17U A59U", "self-cleavage": 0.274}, {"variant": "G17U A61G", "self-cleavage": 0.117}, {"variant": "G17U A71U", "self-cleavage": 0.815}, {"variant": "G17U C37A", "self-cleavage": 0.26}, {"variant": "G17U C38A", "self-cleavage": 0.136}, {"variant": "G17U C46U", "self-cleavage": 0.14}, {"variant": "G17U C66G", "self-cleavage": 0.158}, {"variant": "G17U G19U", "self-cleavage": 0.581}, {"variant": "G17U G21C", "self-cleavage": 0.661}, {"variant": "G17U G29A", "self-cleavage": 0.105}, {"variant": "G17U G29U", "self-cleavage": 0.128}]}]}
